What was measured:
[1] = test system: MS2 coat protein; assay: apparent KD of MS2 coat protein, switch ON state; designed switch direction (-1 OFF switch, 1 ON switch): 1; higher = weaker reporter binding; conditions: FMN input: 0 or 200 uM; Eterna round: R93 (includes R88 designs)
Outline: (§1)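 Values are apparent KD, taken as the median for each design of fits to normalised binding curves from individual clusters. The designed RNA switches were transcribed on-chip from Illumina sequencing clusters and exposed to SNAP-549-labelled MS2 coat protein at twofold increasing amounts from 0.7 or 1.5 nM to 3 µM. Titration used 100 mM Tris-HCl pH 7.5, 80 mM KCl and 4 mM MgCl2, without or with constant ligand.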

[2] = test system: MS2 coat protein; assay: apparent KD of MS2 coat protein, switch OFF state (with FMN for OFF switches, without FMN for ON switches); designed switch direction (-1 OFF switch, 1 ON switch): 1; higher = weaker reporter binding; conditions: FMN input: 0 or 200 uM; Eterna round: R93 (includes R88 designs)
Outline: as §1

| Sequence | apparent KD of MS2 coat protein [1] [nM] | apparent KD of MS2 coat protein [2] [nM] |
| --- | --- | --- |
| GAAAAACAUGAGGAUCACCCAUGUGAGAAUAUGGGAGGAUAUACGAAGACGAGAGUCGAAGUAGAAGGCCUAAAAG [Mat - Same State 1 - Eli mod - 31] | 28.2 | 119 |
| GAAAAACAUGAGGAUCACCCAUGUGAGAUAAACACAGGAUAUGCGAAAAGAAACAAAUAAGCAGAAGGGUGAAAAG [Mat - Same State 1 - Tesla mod - 81] | 44.1 | 282 |
| GAAAAACAUGAGGAUCACCCAUGUGAUAAUAUGGGAGGAUAUACAAAGACGAAAGUCAAAGUAGAAGGCCUAAAAG [Garnet 35] | 40.5 | 73.2 |
| GAAAAACAUGAGGAUCACCCAUGUGGAAAUAUGGGAGGAUAUACUAUGACGAAAGUCAAAGUAGAAGGCCUGAUAG [JL S1 M-MoE mod 5 In the Read] | 24.7 | 124 |
| GAAAAACAUGAGGAUCACCCAUGUGUAAACAUGGGAGGAUAUACAAAGACGUAAGUCAAAGUAGAAGGCCUAAGAG [Garnet 37] | 128 | 15.3 |
| GAAAAACAUGAGGAUCACCCAUGUGUAAAUAUGGAAGGAUAUACAAAGACGAAAGUCAAAGUAGAAGGUCUAAAAG [Mat - Same State 1 - Eli mod - D16] | 23.5 | 28.9 |
| GAAAAUAAAAGACAGGAUAUCCAAAAGAAAACAUGAGGAUCACCCAUGUAAAGAAAAUAAAAAUGGGAGAAGGGUCAAAUAAAAG [Mat - Same State 2 - JL mod - D52] | 64.8 | 56.6 |
| GAAGACAUAGUUCAGGAUAUAGGAAUAGUCACAUGAGGAUCACCCAUGUGCAUUUAUAUGCGCGCUUAGAAGGGAGGUAGAUAUA [SameState2 Malc#20] | 23.8 | 20.8 |
| GACAGACAUGAGGAUCACCCAUGUACAAACGUACAAGGAUAUGUGUGGAAACCGUACUAUACAGAAGGUGUCUGUC [SS1 - 90] | 126 | 90.3 |
| GACGAACAUGAGGAUCACCCAUGUCAAAACGGACAAGGAUAUGUGUGGAAACCGUACUAUACAGAAGGUGUCUGUC [SS1 - 98] | 16.1 | 21.3 |
| GACUGCGAUGUGAAGGAUAUCCGCGACUGGACAUGAGGAUCACCCAUGUAUGCUUAGAACAUGCCGGAGAAGGUCACGAAUGAUU [JR_SS002_Sub1217] | 20.6 | 32.3 |
| GAGAAGAAGAGAGAGGAUAUCCAAAGGAAAACAUGAGGAUCACCCAUGUAAAAGGUAGGAAAUUGGGAGAAGGCUCAGAAGAGGG [salish99-ss2-030] | 23.2 | 26.6 |
| GAGAUACAUGAGGAUCACCCAUGUUGAAAUAUGGGAGGAUAUACAAGGUCGAAAGAUAAGGUAGAAGGCCUAAAAG [LROPPY Same State 1 - v03_deltaG=1.1] | 39.1 | 176 |
| GAGCCGCGGGCACAGGAUAUGCUCGGGCAAACAUGAGGAUCACCCAUGUGCGGCCUAAAUACGACGCAGAAGGGUGCUGGUGUGU [Orxeis] | 44 | 147 |
| GAGGACAUAGUAUAGGAUAUAUGAAUAAUUACAUGAGGAUCACCCAUGUCCAUUUAUAUGGGAACAUAGAAGGGUGGUAGUUAUC [SameState2 Malc#33] | 102 | 202 |
| GAGGACCUAGGAUAGGAUAUAUGAAUAAUUACAUGAGGAUCACCCAUGUCCAUUUAUAUGGGAACAUAGAAGGGUUGUGGUUAUC [SameState2 Malc#36] | 147 | 178 |

From the supplement of paper PMC9170038
